Measurements published in the RNAGym collection of RNA variant scans (doi:10.7554/elife.80360).

B1: HDV Ribozyme (parent)
chain: GGCCGGCAUGGUCCCAGCCUCCUCGCUGGCGCCGGCUGGGCAACAUUCCGAGGGGACCGUCCCCUCGGUAAUGGCGAAUGGGACCCA

Variants of: B1
Assay: self-cleavage, relative activity (ratio to wild type); higher = more cleavage; co-transcriptional
GGCCCGCAUGGUCCCAGCCUCCUCGCUGGCGCCGGCUGGGCAACAUUCCGAGGGGACCGUCCCCUCGGUAAUGGCGAAUGGGACCCC [G5C A87C] gave a self-cleavage of 0.268. GGCCCGCAUGGUCCCAGCCUCCUCGCUGGCGCCGGCUGGGCAACAUUCCGAGGGGACCGUCCCCUCGGUAAUGGCGAAUGGGACCCU [G5C A87U] gave a self-cleavage of 0.175. In the case of GGCCCGCAUGGUGCCAGCCUCCUCGCUGGCGCCGGCUGGGCAACAUUCCGAGGGGACCGUCCCCUCGGUAAUGGCGAAUGGGACCCA [G5C C13G], the self-cleavage is reported as 0.262. Variant GGCCCGCAUGGUCCGAGCCUCCUCGCUGGCGCCGGCUGGGCAACAUUCCGAGGGGACCGUCCCCUCGGUAAUGGCGAAUGGGACCCA [G5C C15G] has a self-cleavage of 0.249. Variant GGCCCGCAUGGUCCCAGCCUCCUCGUUGGCGCCGGCUGGGCAACAUUCCGAGGGGACCGUCCCCUCGGUAAUGGCGAAUGGGACCCA [G5C C26U] has a self-cleavage of 0.489. In the case of GGCCCGCAUGGUCCCAGCCUCCUCGCUGGUGCCGGCUGGGCAACAUUCCGAGGGGACCGUCCCCUCGGUAAUGGCGAAUGGGACCCA [G5C C30U], the self-cleavage is reported as 0.128. For GGCCCGCAUGGUCCCAGCCUCCUCGCUGGCGGCGGCUGGGCAACAUUCCGAGGGGACCGUCCCCUCGGUAAUGGCGAAUGGGACCCA [G5C C32G], the self-cleavage was 0. For GGCCCGCAUGGUCCCAGCCUCCUCGCUGGCGUCGGCUGGGCAACAUUCCGAGGGGACCGUCCCCUCGGUAAUGGCGAAUGGGACCCA [G5C C32U], the self-cleavage was 0.0573. With GGCCCGCAUGGUCCCAGCCUCCUCGCUGGCGCCGGCUGGGCAAAAUUCCGAGGGGACCGUCCCCUCGGUAAUGGCGAAUGGGACCCA [G5C C44A] the self-cleavage was 0. For GGCCCGCAUGGUCCCAGCCUCCUCGCUGGCGCCGGCUGGGCAACAUUUCGAGGGGACCGUCCCCUCGGUAAUGGCGAAUGGGACCCA [G5C C48U], the self-cleavage was 0.308. With GGCCCGCAUGGUCCCAGCCUCCUCGCUGGCGCCGGCUGGGCAACAUUCGGAGGGGACCGUCCCCUCGGUAAUGGCGAAUGGGACCCA [G5C C49G] the self-cleavage was 0.192. For GGCCCGCAUGGUCCCAGCCUCCUCGCUGGCGCCGGCUGGGCAACAUUCCGAGGGGAUCGUCCCCUCGGUAAUGGCGAAUGGGACCCA [G5C C57U], the self-cleavage was 0.185. In the case of GGCCCGCAUGGUCCCAGCCUCCUCGCUGGCGCCGGCUGGGCAACAUUCCGAGGGGACUGUCCCCUCGGUAAUGGCGAAUGGGACCCA [G5C C58U], the self-cleavage is reported as 0.293. GGCCCGCAUGGUCCCAGCCUCCUCGCUGGCGCCGGCUGGGCAACAUUCCGAGGGGACCGUGCCCUCGGUAAUGGCGAAUGGGACCCA [G5C C61G] showed a self-cleavage of 0.287. Variant GGCCCGCAUGGUCCCAGCCUCCUCGCUGGCGCCGGCUGGGCAACAUUCCGAGGGGACCGUUCCCUCGGUAAUGGCGAAUGGGACCCA [G5C C61U] has a self-cleavage of 0. For GGCCCGCAUGGUCCCAGCCUCCUCGCUGGCGCCGGCUGGGCAACAUUCCGAGGGGACCGUCACCUCGGUAAUGGCGAAUGGGACCCA [G5C C62A], the self-cleavage was 0.0665. With GGCCCGCAUGGUCCCAGCCUCCUCGCUGGCGCCGGCUGGGCAACAUUCCGAGGGGACCGUCUCCUCGGUAAUGGCGAAUGGGACCCA [G5C C62U] the self-cleavage was 0.222. Variant GGCCCGCAUGGUCCCAGCCUCCUCGCUGGCGCCGGCUGGGCAACAUUCCGAGGGGACCGUCCCAUCGGUAAUGGCGAAUGGGACCCA [G5C C64A] has a self-cleavage of 0.178. GGCCCGCAUGGUCCCAGCCUCCUCGCUGGCGCCGGCUGGGCAACAUUCCGAGGGGACCGUCCCCUCGGUAAUGGCGAAUGGGAACCA [G5C C84A] gave a self-cleavage of 0.142. Work on GGCCCUCAUGGUCCCAGCCUCCUCGCUGGCGCCGGCUGGGCAACAUUCCGAGGGGACCGUCCCCUCGGUAAUGGCGAAUGGGACCCA [G5C G6U] yielded a self-cleavage of 0.185. GGCCCGCAUGAUCCCAGCCUCCUCGCUGGCGCCGGCUGGGCAACAUUCCGAGGGGACCGUCCCCUCGGUAAUGGCGAAUGGGACCCA [G5C G11A] gave a self-cleavage of 0.0449. GGCCCGCAUGGUCCCAGCCUCCUCGCUGUCGCCGGCUGGGCAACAUUCCGAGGGGACCGUCCCCUCGGUAAUGGCGAAUGGGACCCA [G5C G29U] gave a self-cleavage of 0. Variant GGCCCGCAUGGUCCCAGCCUCCUCGCUGGCUCCGGCUGGGCAACAUUCCGAGGGGACCGUCCCCUCGGUAAUGGCGAAUGGGACCCA [G5C G31U] has a self-cleavage of 0.0405. With GGCCCGCAUGGUCCCAGCCUCCUCGCUGGCGCCGACUGGGCAACAUUCCGAGGGGACCGUCCCCUCGGUAAUGGCGAAUGGGACCCA [G5C G35A] the self-cleavage was 0.113. GGCCCGCAUGGUCCCAGCCUCCUCGCUGGCGCCGUCUGGGCAACAUUCCGAGGGGACCGUCCCCUCGGUAAUGGCGAAUGGGACCCA [G5C G35U] showed a self-cleavage of 0.0308. GGCCCGCAUGGUCCCAGCCUCCUCGCUGGCGCCGGCUGGUCAACAUUCCGAGGGGACCGUCCCCUCGGUAAUGGCGAAUGGGACCCA [G5C G40U] gave a self-cleavage of 0.104. With GGCCCGCAUGGUCCCAGCCUCCUCGCUGGCGCCGGCUGGGCAACAUUCCUAGGGGACCGUCCCCUCGGUAAUGGCGAAUGGGACCCA [G5C G50U] the self-cleavage was 0.0361. GGCCCGCAUGGUCCCAGCCUCCUCGCUGGCGCCGGCUGGGCAACAUUCCGAAGGGACCGUCCCCUCGGUAAUGGCGAAUGGGACCCA [G5C G52A] gave a self-cleavage of 0.252. Work on GGCCCGCAUGGUCCCAGCCUCCUCGCUGGCGCCGGCUGGGCAACAUUCCGACGGGACCGUCCCCUCGGUAAUGGCGAAUGGGACCCA [G5C G52C] yielded a self-cleavage of 0.095. For GGCCCGCAUGGUCCCAGCCUCCUCGCUGGCGCCGGCUGGGCAACAUUCCGAGAGGACCGUCCCCUCGGUAAUGGCGAAUGGGACCCA [G5C G53A], the self-cleavage was 0.162. Work on GGCCCGCAUGGUCCCAGCCUCCUCGCUGGCGCCGGCUGGGCAACAUUCCGAGGAGACCGUCCCCUCGGUAAUGGCGAAUGGGACCCA [G5C G54A] yielded a self-cleavage of 0.0831. Work on GGCCCGCAUGGUCCCAGCCUCCUCGCUGGCGCCGGCUGGGCAACAUUCCGAGGGGACCUUCCCCUCGGUAAUGGCGAAUGGGACCCA [G5C G59U] yielded a self-cleavage of 0.128.
